Key:
[1] = KM and Vmax of purified GtCGT enzymes, FK converted into dcII, UDP-Glo Glycosyltransferase Assay; type: biochemical, Gentiana triflora; details: substrate FK
Protocol: The purified enzyme was buffer-exchanged with an enzyme storage solution (50 mM HEPES, 20% glycerol, pH 7.5) using Amicon Ultra-15 Centrifugal Filters (regenerated cellulose, 50,000 NMWL; Merck), and in order to calculate KM and Vmax values, FK was converted into dcII using the purified enzyme. Here, a UDP-Glo Glycosyltransferase Assay Kit (Promega) was used to determine the extent of reaction. Since this kit enables measurement of free UDP generated as a reaction byproduct by luminescence, 200 μL of an enzyme reaction solution containing 0.1 μM enzyme and various concentrations of FK (50 mM HEPES, 0.1 mM UDP-glucose, 5 mM MgCl2, pH 7.5) was allowed to react at 25° C. for 1 hour, 25 μL thereof was taken out, and the amount of emitted light was measured using the kit.

naringenin = assay: Conversion of naringenin to naringenin-6-C-glucoside by intracellularly expressed enzyme, flask culture; type: cell-based, E. coli
Protocol: (§1) As such, 70 μM luteolin, 0.5 mM naringenin, or 185.2 μM apigenin was co-administered, followed by culture for an additional 36 hours. The amounts of substrate and product were analyzed by LC-MS. Flask culture was carried out in a 250 mL baffled flask containing 50 mL of R/2 medium (supplemented with 3 g/L yeast extract and 20 g/L glucose), and culture was performed at 30° C. and 200 rpm.

FK = assay: dcII production from FK by C-glycosyltransferase candidates and GtCGT mutants in FK-producing E. coli, flask culture; type: cell-based; details: flask culture
Protocol: Flask culture was carried out under the following conditions. Colonies were seeded into 10 mL of LB medium supplemented with appropriate concentrations of antibiotics, followed by culture overnight at 37° C. The culture fluid thus prepared was passaged into a 250 mL baffled flask containing 50 mL of R/2 medium supplemented with 3 g/L yeast extract and 20 g/L glucose (with 0.45 g/L ascorbic acid if necessary), followed by culture at 30° C. and 200 rpm. The composition of R/2 medium (pH 6.8) was as follows (per liter): 2 g of (NH4)2HPO4, 6.75 g of KH2PO4, 0.85 g of citric acid, 0.7 g of MgSO4·7H2O, and 5 ml of trace metal solution (TMS) [10 g of FeSO4·7H2O, 2.25 g of ZnSO4·7H2O, 1 g of CuSO4·5H2O, 0.5 g of MnSO4·5H2O, 0.23 g of Na2B4O7·10H2O, 2 g of CaCl2·2H2O, and 0.1 g of (NH4)6Mo7O24 per liter of 5 M HCl]. When OD600 of the culture fluid reached 0.6-0.8, 1 mM isopropyl β-D-1-thiogalactopyranoside (IPTG) was added to induce exogenous gene expression, followed by culture for 48 hours.
After culture, production analysis was performed under the following conditions. After flask culture, 50 mL of the culture fluid was centrifuged at 4,000 g for 30 minutes, and then the supernatant was desalted and concentrated. Here, Oasis HLB cartridges (Water) were used. The supernatant was concentrated 1-fold for FK, 30-fold for KA, 45-fold for dell, and 200-fold for carminic acid. The concentrated sample was re-dissolved in an appropriate volume of DMSO and impurities were then removed therefrom using a 0.22 μm PTFE filter. The prepared sample was analyzed by MS (LC/MSD VL; Agilent) coupled with HPLC (1100 series; Agilent). An Eclipse XDB-C18 column was used, 0.1% formic acid was used as buffer A, and methanol was used as buffer B. Analysis was performed in an ESI negative mode. For more accurate analysis of carminic acid, LC-MS/MS was performed using an HPLC Triple Quadrupole Mass Spectrometer (LCMS-8050, Shimadzu) (MRM mode).
Flask culture started by seeding colonies from LB agar plates into test tubes containing 10 mL of LB. As such, an appropriate concentration of antibiotics was added, followed by culture overnight at 37° C. at 220 rpm. 1 mL of the seed culture thus prepared was inoculated into a 250 mL baffled flask containing 50 mL of R/2 medium (supplemented with 3 g/L yeast extract and 20 g/L glucose), followed by culture at 30° C. and 200 rpm. The composition of R/2 medium was as follows (pH 6.8, per 1 L): 2 g of (NH4)2HPO4, 6.75 g of KH2PO4, 0.85 g of citric acid, 0.8 g of MgSO4·7H2O, and 5 ml of trace metal solution (TMS). The composition of TMS was as follows (based on 0.1 M HCl, per 1 L): 10 g of FeSO4·7H2O, 2.25 g of ZnSO4·7H2O, 1 g of CuSO4·5H2O, 0.58 g of MnSO4·5H2O, 0.02 g of Na2B4O7·10H2O, 2 g of CaCl2·2H2O, and 0.1 g of (NH4)6Mo7O24·4H2O. When OD600 of the culture fluid reached 0.6-0.8, 0.5 mM IPTG was added to induce exogenous enzyme expression, followed by culture for 48 hours. In all experiments for producing flavokermesic acid, kermesic acid, dcII, and carminic acid, 0.45 g/L of ascorbic acid was further added.
The production of carminic acid (CA) from FK was performed by two biosynthesis pathways, both of which require monooxygenase and C-glycosyltransferase. FK may be oxidized into KA or may be C-glycosylated into dcII. […] In order for the enzyme to have activity, however, it must be glycosylated, and since it also has a transmembrane helix and a signal peptide, successful expression in cells such as E. coli is considered difficult.
For the enzymes selected above, pCDF-DcCGT, pCDF-MiCGT, pCDF-SfCGT, pCDF-EnCGT, pCDF-OsCGT, pCDF-FeCGT, pCDF-GmCGT, pCDF-AvCGT, pCDF-AvCGT, pCDF-ZmCGT, and pCDF-GtCGT were constructed, and all genes except for the iroB gene amplified from genomic DNA of E. coli Nissle using the iroB_gib_F primer and the iroB_gib_R primer were artificially synthesized and inserted into the NdeI site of the pCDFDuet-1 plasmid using Gibson assembly. […]

aloesone = assay: Aloesin production from aloesone by GtCGT and variants in E. coli BL21(DE3), flask culture; type: cell-based
Protocol: Also, in LC-MS/MS for aloesin analysis, MS (Agilent 6550 iFunnel Q-TOF LC/MS System) coupled with ultra HPLC (UHPLC; 1290 Infinity II LC System; Agilent) was used. Here, an Eclipse-plus C18 column was used, and 0.1% formic acid was used as buffer A, and acetonitrile to which 0.1% formic acid was added was used as buffer B.
Thereafter, in order to test the production of aloesin, the pCDF-GtCGT or pCDF-GtCGT^V93Q/Y193F plasmid was transformed into the BL21(DE3) strain containing pWAS-anti-pabA, pRSF-RpALS, and pBBR1-zwf plasmids, followed by flask culture.
Similarly to the test for increased production of aloesone, RpALS was additionally introduced to increase aloesin production. To this end, pCDF-RpALS-GtCGT^V93Q/Y193F was constructed instead of introducing pCDF-GtCGT^V93Q/Y193F. Specifically, RpALS was amplified from pCDF-RpALS using pCDFDuet F and pCDFDuet R primers, and inserted into the NcoI and BamHI sites of the pCA plasmid through Gibson assembly. Thereafter, four plasmids, namely pRSF-RpALS, pCDF-RpALS-GtCGT^V93Q/Y193F, pWAS-anti-pabA, and pBBR1-zwf, were transformed into E. coli BL21(DE3), which was named an ALS strain.
(§2) Mutagenesis for a specific sequence was performed in the same manner as in Example 2. Here, plasmids containing gene mutants were constructed using pCDF-RpALS-GtCGT^V93Q/Y193F as a template and using primer pairs shown in Table 11 below. The plasmids thus constructed were transformed into the BL21 (DE3) strain along with three plasmids, namely pWAS-anti-pabA, pRSF-RpALS, and pBBR1-zwf, followed by flask culture under the same conditions as in Example 3 using the strains thus constructed. The concentration of aloesin produced was measured in an MRM mode of the HPLC Triple Quadrupole Mass Spectrometer (LCMS-8050, Shimadzu) of the KAIST Biocore Center.
as §2, with “13” for “11”

apigenin = assay: Conversion of apigenin to vitexin by intracellularly expressed enzyme, flask culture; type: cell-based, E. coli
Protocol: as §1

luteolin = assay: Conversion of luteolin to isoorientin by intracellularly expressed enzyme, flask culture; type: cell-based, E. coli
Protocol: as §1

B1: GtCGT^V93Q/Y193F: GtCGT variant with substitutions V93Q and Y193F (SEQ ID NO: 61) (protein)
chain: MGSLTNNDNLHIFLVCFIGQGVVNPMLRLGKAFASKGLLVTLSAPEIVGTEIRKANNLNDDQPIKVGSGMIRFEFFDDGWESVNGSKPFDVWQYINHLDQTGRQKLPIMLKKHEETGTPVSCLILNPLVPWVADVADSLQIPCATLWVQSCASFSAYYHYHHGLVPFPTESEPEIDVQLPGMPLLKYDEVPDFLHPRTPYPFFGTNILGQFKNLSKNFCILMDTFYELEHEIIDNMCKLCPIKPIGPLFKIPKDPSSNGITGNFMKVDDCKEWLDSRPTSTVVYVSVGSVVYLKQEQVTEMAYGILNSEVSFLWVLRPPSKRIGTEPHVLPEEFWEKAGDRGKVVQWSPQEQVLAHPATVGFLTHCGWNSTQEAISSGVPVITFPQFGDQVTNAKFLVEEFKVGVRLGRGELENRIITRDEVERALREITSGPKAEEVKENALKWKKKAEETVAKGGYSERNLVGFIEEVARKTGTK
modifications: GtCGT V93Q/Y193F (GtUF6CGT1V93Q/Y193F) variant
Vmax/KM value increase compared to GtCGT [1]: 46.8%
naringenin-6-C-glucoside produced (naringenin; from 0.5 mM naringenin, 36 hours, with pBBR1-galU-pgm-ndk): 51.6 µM
conversion rate (naringenin; naringenin to naringenin-6-C-glucoside): 10.3%
dcII production increase compared to wild-type GtCGT (FK; FK strain): 5.3 fold
dcII production (FK; FK-producing E. coli strain): 0.74 mg CA eq/L
aloesin production (aloesone; BL21(DE3) with pWAS-anti-pabA, pRSF-RpALS, pBBR1-zwf and pCDF-GtCGT variant plasmid): 0.06 µg/L
aloesin amount compared with strain containing GtCGT (aloesone; flask culture): greater amount of aloesin than the strain containing GtCGT
conversion rate (apigenin; apigenin to vitexin): 8.1%
vitexin produced (apigenin; from 185.2 μM apigenin, 36 hours, with pBBR1-galU-pgm-ndk): 15.0 µM
isoorientin produced (luteolin; from 70 μM luteolin, 36 hours, with pBBR1-galU-pgm-ndk): 27.9 µM
conversion rate (luteolin; luteolin to isoorientin): 27.9%

From patent publication US20240102068A1, “C-GLYCOSYLTRANSFERASE VARIANTS AND USE THEREOF” (KOREA ADVANCED INSTITUTE OF SCIENCE AND TECHNOLOGY, priority 2021, published 2024)
